Measurements taken from PMC6533264 (Scientific Reports, 2019).
Numbering of substitutions follows the chain as printed.

B1: 4R34.1.19, human IgG1 (antibody, V domains shown)
VH: EVQLLESGGGLVQPGGSLRLSCAASGFTFSRHAMAWVRQAPGKGLEWVSAITSSGRSIYYADSVKGRFTISRDNSKNTLYLQMNSLRAEDTAVYYCARVHRAFDYWGQGTLVTVSS
VL: QSVLTQPPSASGTPGQRVTISCSGSPLFPDSGSFNWYQQLPGTAPKLLIYADSHRPSGVPDRFSGSKSGTSASLAISGLRSEDEADYYCGTWDYSLSGYVLGGGTKLTVL
B2: 4R34, human IgG1 (antibody, V domains shown)
VH: B1 VH with R31N, H32Y, A35S, T52S, S54G, R56G, S57N
VL: B1 VL with P26S, L27S, F28N, P29I, D30G, G32N, S33T
B3: 4R34.29, human IgG1 (antibody, V domains shown)
VH: B1 VH with R31N, H32Y, A35S, S53A, S54G, R56G
VL: B1 VL with P26S, L27S, F28N, P29I, D30G, G32N, S33T
B4: 4R34.1.17, human IgG1 (antibody, V domains shown)
VH: B1 VH with R31N, H32Y, A35S
VL: B1 VL with P26T, L27K, F28Q, P29M, D30H, S31N, G32Y, S33Q
B5: 4R34.1.13, human IgG1 (antibody, V domains shown)
VH: B1 VH with R31N, H32Y, A35S
VL: B1 VL with P26A, L27Q, P29G, D30S, S31R, G32D, S33N, S97R
B6: 4R34.2, human IgG1 (antibody, V domains shown)
VH: B1 VH with R31N, H32Y, A35S, R56A, S57N
VL: B1 VL with P26S, L27S, F28N, P29I, D30G, G32N, S33T, S97R
B7: 4R34.19, human IgG1 (antibody, V domains shown)
VH: B1 VH with R31N, H32Y, A35S, R56G, S57N
VL: B1 VL with P26S, L27S, F28N, P29I, D30G, G32N, S33T, T91Y
B8: 4R34.1, human IgG1 (antibody, V domains shown)
VH: B1 VH with R31N, H32Y, A35S
VL: B1 VL with P26S, L27S, F28N, P29I, D30G, G32N, S33T
B9: 4R34.1.21, human IgG1 (antibody, V domains shown)
VH: B1 VH with R31N, H32Y, A35S
VL: B1 VL with P26A, L27A, F28L, P29D, D30L, G32P
B10: 4R34.1.11, human IgG1 (antibody, V domains shown)
VH: B1 VH with R31N, H32Y, A35S
VL: B1 VL with P26S, L27A, F28N, P29S, D30R, S31T, G32D, S33G, S97R
B11: 4R34.1.18, human IgG1 (antibody, V domains shown)
VH: B1 VH with R31N, H32Y, A35S
VL: B1 VL with P26L, F28R, P29G, D30E, S31N, G32L, S33Q, S97R

These molecules were tested against T1, insulin (Homo sapiens (assumed), UniProt P01308) (assay: ELISA; non-specificity ELISA: hemocyanin (150 ng/well) and insulin (150 ng/well) coated (also dsDNA and cardiolipin)). Conditions: both partners purified.
T1 construct: insulin B chain; insulin A chain; Polyreactivity antigen; source: bought: Sigma, I9278
T1 sequence (P01308 whole entry, looked up): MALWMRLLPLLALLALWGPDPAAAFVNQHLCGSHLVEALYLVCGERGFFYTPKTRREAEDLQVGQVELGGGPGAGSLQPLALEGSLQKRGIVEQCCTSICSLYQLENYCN

Row | binding result | Molecule
1 | no binding | B1

What follows are molecules tested against T2, extracellular domain of human IL-4Rα (residues 26–232), C-terminal 6× His (human, UniProt P24394) (assay: BLI; OctetRED96; Ab (1 μg/mL) captured on anti-human IgG Fc capture (AHC) biosensors at low density (0.6 to 0.8 nm), soluble monomeric IL-4Rα as analyte; 25 °C, PBS pH 7.4, 0.02% Tween 20; association 300 s, dissociation 600-900 s; 1:1 binding model). Conditions: both partners purified.
T2 construct: human interleukin-4 receptor alpha subunit, extracellular domain, residues 26-232; Subcloned into the pSecTag2A vector; N-glycosylated (~45 kDa, ~26 kDa after PNGase F); also called wild-type IL-4Rα; soluble IL-4Rα; source: HEK293F, transiently transfected, purified (Ni-NTA); not shown: His6, C-terminal, kept
T2 sequence (P24394 26-232): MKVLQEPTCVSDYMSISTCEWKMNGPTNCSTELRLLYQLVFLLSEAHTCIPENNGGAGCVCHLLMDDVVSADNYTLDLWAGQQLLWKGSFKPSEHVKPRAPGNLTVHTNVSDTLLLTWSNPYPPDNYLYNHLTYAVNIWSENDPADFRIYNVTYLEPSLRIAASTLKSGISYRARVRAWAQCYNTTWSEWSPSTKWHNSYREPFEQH

Row | Kd | koff | kon | Molecule
2 | 1.04 nM | 0.00361 s⁻¹ | 3.47e+06 M⁻¹ s⁻¹ | B2
3 | 0.716 nM | 0.00371 s⁻¹ | 5.18e+06 M⁻¹ s⁻¹ | B3
4 | 0.179 nM | 0.000879 s⁻¹ | 4.92e+06 M⁻¹ s⁻¹ | B4
5 | 0.208 nM | 0.00107 s⁻¹ | 5.12e+06 M⁻¹ s⁻¹ | B5
6 | 0.853 nM | 0.00401 s⁻¹ | 4.7e+06 M⁻¹ s⁻¹ | B6
7 | 0.532 nM | 0.00243 s⁻¹ | 4.58e+06 M⁻¹ s⁻¹ | B7
8 | 0.178 nM | 0.000877 s⁻¹ | 4.93e+06 M⁻¹ s⁻¹ | B1
9 | 0.401 nM | 0.00172 s⁻¹ | 4.28e+06 M⁻¹ s⁻¹ | B8
10 | 0.228 nM | 0.00106 s⁻¹ | 4.63e+06 M⁻¹ s⁻¹ | B9
11 | 0.21 nM | 0.000968 s⁻¹ | 4.62e+06 M⁻¹ s⁻¹ | B10
12 | 0.29 nM | 0.00175 s⁻¹ | 6.05e+06 M⁻¹ s⁻¹ | B11

The molecules below were run against Dupilumab analogue (assay: ELISA). Conditions: dupilumab analogue 100 pM; read off a plot.

Row | percent of parent | Molecule
13 | 76% | extracellular domain of human IL-4Rα (residues 26–232), C-terminal 6× His (from UniProt P24394) V93A
14 | 97% | extracellular domain of human IL-4Rα (residues 26–232), C-terminal 6× His (from UniProt P24394) L68A
15 | 100% | extracellular domain of human IL-4Rα (residues 26–232), C-terminal 6× His (from UniProt P24394) D92A
16 | 100% | extracellular domain of human IL-4Rα (residues 26–232), C-terminal 6× His (from UniProt P24394) S95A
17 | 73% | extracellular domain of human IL-4Rα (residues 26–232), C-terminal 6× His (from UniProt P24394) D97A
18 | 100% | extracellular domain of human IL-4Rα (residues 26–232), C-terminal 6× His (from UniProt P24394) L67A

Row | Molecule | percent of parent
19 | extracellular domain of human IL-4Rα (residues 26–232), C-terminal 6× His (from UniProt P24394) Y208A | 100%
20 | extracellular domain of human IL-4Rα (residues 26–232), C-terminal 6× His (from UniProt P24394) Y38A | 120%
